{"source": "paper doi:10.1101/2020.07.22.215871", "binders": {"B1": {"name": "73 bp conserved minicircle sequence (dsDNA)", "DNA 1": "GAAAAAACGGAAAATCTTATGGGCGTGCAAAAATACACATACACAAATCCCGTGCTTATTTTAGGCCATTTTT", "DNA 2": "AAAAATGGCCTAAAATAAGCACGGGATTTGTGTATGTGTATTTTTGCACGCCCATAAGATTTTCCGTTTTTTC"}}, "target": "T1, Tb927.11.16120-His (r16120) (Trypanosoma brucei, UniProt Q381H4 1-610)", "T1 sequence": "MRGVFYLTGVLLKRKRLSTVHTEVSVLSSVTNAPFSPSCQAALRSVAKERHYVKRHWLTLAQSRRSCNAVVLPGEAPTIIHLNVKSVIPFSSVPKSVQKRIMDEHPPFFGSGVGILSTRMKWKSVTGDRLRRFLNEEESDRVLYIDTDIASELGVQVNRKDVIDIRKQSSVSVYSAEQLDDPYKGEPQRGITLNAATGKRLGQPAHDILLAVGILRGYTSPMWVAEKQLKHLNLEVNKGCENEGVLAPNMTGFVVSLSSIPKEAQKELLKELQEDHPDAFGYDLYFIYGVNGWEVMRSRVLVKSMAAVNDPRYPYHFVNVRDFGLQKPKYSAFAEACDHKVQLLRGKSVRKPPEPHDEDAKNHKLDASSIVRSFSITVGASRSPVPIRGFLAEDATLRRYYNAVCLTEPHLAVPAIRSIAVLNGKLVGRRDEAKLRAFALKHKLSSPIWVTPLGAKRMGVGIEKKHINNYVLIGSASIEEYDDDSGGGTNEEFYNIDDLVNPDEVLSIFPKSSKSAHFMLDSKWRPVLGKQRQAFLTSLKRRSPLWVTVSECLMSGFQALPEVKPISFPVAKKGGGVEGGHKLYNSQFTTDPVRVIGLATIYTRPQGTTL", "experiment": "EMSA"}
{"binder": "B1", "values": [{"measurement": "binding result", "result": "binds"}]}
